Consider one molecule from US20140134169A1, “Methods of Treating Ovarian Cancer with Dll4 Antagonists” (Regeneron Pharmaceuticals, Inc., priority 2012, published 2014).

For data set [1], the system named is SKOV-3 cells. The data set can be described thus: SKOV-3 ovarian xenograft (subcutaneous) tumor growth inhibition. The format is in vivo, human. Particulars: Humanized Dll4 SCID mice; REGN421 2.5 mg/kg once weekly; 2.5 mg/kg. Here is the method: Ovarian tumor xenograft cells were implanted into humanized Dll4 SCID mice or vendor SCID mice (i.e., SCID mice expressing native murine Dll4). After implantation, mice were treated with REGN421 (anti-human Dll4 antibody, binds to human Dll4), mDll4Ab1 (anti-murine Dll4 antibody, binds to murine Dll4), or a human Fc domain control protein. In one study, mice were treated with VEGF-Trap, mDll4Ab1 or VEGF-Trap plus mDll4Ab1. TOV-112D cells (5×10^6) were implanted subcutaneously into the right flank of humanized Dll4 (n=4) or vendor SCID mice (n=7). Treatment with REGN421 (2.5 mg/kg, 1×/week) or mDll4Ab1 (5 mg/kg, 1×/week) vs. hFc control was initiated one week after tumor cell implantation. Animals were treated for 2 to 3 weeks. A2780 cells (2×10^6) were implanted intraperitoneally into humanized Dll4 or vendor SCID mice (n=4-5). Treatment with REGN421 (2.5 mg/kg, 1×/week) or mDll4Ab1 (5 mg/kg, 1×/week) vs. hFc control was initiated one week after tumor cell implantation. For the A2780 combination study, simultaneous treatment with mDll4Ab1 (5 mg/kg, 1×/week) and VEGF-Trap (10 mg/kg, 2×/week) was initiated one week after tumor cell implantation. A VEGF-Trap single treatment arm was included in this study. Animals bearing A2780 tumors were treated for 4-5 weeks. […] Tumor growth inhibition (TGI) was measured as detailed above.

The nature of data set [2]: Phase I pharmacokinetics, single 30-min IV infusion, ELISA. The format is in vivo, human. Here is the method: REGN421 is currently being studied in a first-in-human trial. The primary objective of the study is to determine the recommended dose of REGN421 for future efficacy trials. The secondary objectives are to characterize the drug safety profile, its pharmacokinetics, immunogenicity, and pharmacodynamics, as well as preliminary evidence of efficacy. In this study, anti-hDll4 antibody REGN421 is administered intravenously every 3 weeks to patients whose cancer has progressed on conventional therapy. The study design follows standard methodology for dose escalation and definition of dose-limiting toxicity. To date, 7 patients have been treated at 0.25 mg/kg/dose every three weeks, and 6 patients have been treated at 0.50 mg/kg/dose every three weeks. For the pharmacokinetic study, blood samples were taken at pre-dose, 0 hour, and post-dose 1, 2, 4 and 8 hours on Day 1, followed by Days 2, 3, 4, 8 and 15 of Cycle 1; and pre-dose, 0 hour on Day 1 of Cycles 2, and post-treatment follow-up on Days 15, 30 and 60. Plasma/serum levels of REGN421 in the samples are measured by ELISA with an upper limit of quantification of 2.5 μg/mL and a lower limit of quantification of 0.039 μg/mL in the undiluted serum sample. The study is ongoing with the intent to administer higher doses, defined in the protocol as 1, 2, 4, and 7 mg/kg/dose.
The currently available data showing plasma pharmacokinetic parameters following single 30-min. Cmax: Maximum serum concentration of the drug; Tlast: Time to the last quantifiable concentration of the drug; Clast: Last quantifiable concentration of the drug; AUClast: Area under curve up to the last concentration of the drug; AUC: Total area under the curve (i.e., drug exposure); t1/2Z: Terminal half life; Vss: Volume of distribution at steady state; CL: Drug clearance rate. Values are: mean, (CV %), and [range] (a: median [range]).
In general terms: An ELISA detects its analyte on a solid surface through an enzyme-linked reagent.

In data set [3] the test system is human VM-Cub1 tumor cells (bladder carcinoma cells). Kind of data set: Growth of human VM-Cub1 tumors implanted in humanized Dll4 SCID mice. The format is in vivo. Particulars: for TGI(%): day 32; for TGD: to 600 mm3. The protocol:
The humanized Dll4 SCID mouse was made by replacing the entire extracellular domain of the mouse Dll4 gene with the corresponding extracellular region of the human Dll4 gene (7 kb) in embryonic stem (ES) cells. Homozygous hDll4 mice were generated and bred into SCID background.
A total of 45 mice were divided into nine groups (n=5 per cohort). The first group was treated subcutaneously (sc) with hFc at 2 mg/kg; the second and third groups were treated sc with REGN421 at 0.5 and 2 mg/kg, respectively; the fourth and fifth groups were treated intraperitoneally (ip) with cisplatin at 0.5 and 2 mg/kg, respectively; the sixth group was treated sc with REGN421 at 0.5 mg/kg and ip with cisplatin at 0.5 mg/kg; the seventh group was treated sc with REGN421 at 0.5 mg/kg and ip with cisplatin at 2 mg/kg; the eighth group was treated sc with REGN421 at 2 mg/kg and ip with cisplatin at 0.5 mg/kg; and the ninth group was treated sc with REGN421 at 2 mg/kg and ip with cisplatin at 2 mg/kg. REGN421 was administered every 3-4 days starting on day 14 and mice received three doses total. Cisplatin was administered every 24 hours starting on day 14; mice received four doses total.
To assess the effects of REGN421 and cisplatin as single agents or in combination treatments, the changes in tumor size were recorded. Tumor growth was measured three days before the initial REGN421 treatment, on the day of each REGN421 treatment (days 14, 17 and 21) and thereafter every 3-4 days until tumors reached ˜600 mm3 in size. In vivo tumor size was calculated using the formula (length×width2)/2 (FIG. 1 and Table 1).
Tumor Growth Inhibition, TGI, was determined by calculating the difference in tumor size for treated (T) versus vehicle control (C) tumor at the day the control cohort was euthanized (i.e., at day 32); TGI=[1−(Tfinal−Tinitial)/(Cfinal−Cinitial)]×100.
Tumor growth delay, TGD, was assessed as the difference in days between treated (T) versus control (C) tumors when each cohort reached a specified tumor size. The predetermined tumor size for this experiment was 600 mm^3.

B1: REGN421 (antibody, V domains shown)
VH: QVQLVESGGGVVQPGRSLRLSCAASGFTFSSYGMHWVRQAPGKGLEWVSFLWYDGTNKNYVESVKGRFTISRDNSKNMLYLEMNSLRAEDTAVYYCARDHDFRSGYEGWFDPWGQGTLVTVSS
VL: EIVLTQSPATLSLSPGERATLSCRASQSVSSYLAWYQQKPGQAPRLLIYDASNRATGIPARFSGSGSGTDFTLTISSLEPEDFAVYYCQHRSNWPPTFGGGTKVEIK
With B1, the “% TGI” value in data set [1] came to 61%. Moreover, in data set [2] (0.25 mg/kg IV, n = 7, mean), the AUC was 489 µg·h/mL, the AUClast turned out to be 452 µg·h/mL, the CL is 0.0473 L/h and the peak concentration (Cmax) turned out to be 6.27 µg/mL. In data set [2] (0.25 mg/kg IV, n = 7, mean), the T1/2Z came out at 47.1 h and the Vss was found to be 2.85 L. The Tlast in data set [2] (0.25 mg/kg IV, n = 7, median) is 170 h. In addition, in data set [2] (0.5 mg/kg IV, n = 2, mean), the AUC is 963 µg·h/mL, the AUClast is 759 µg·h/mL, the CL is recorded as 0.0355 L/h and the Clast came to 2.24 µg/mL. In data set [2] (0.5 mg/kg IV, n = 2, mean), the Cmax was determined as 9.88 µg/mL, the T1/2Z is 92.3 h and the Vss was 3.64 L. Also, in data set [2] (0.5 mg/kg IV, n = 2, median), the Tlast is on record as 203 h. Besides, in data set [3] (REGN421 0.5 mg/kg/dose sc x3), the “Euthanized” value came to 32 days, the “TGI(%)” value is reported as −13.7% and the “TGD” value is given as 0 days. In data set [3] (REGN421 2 mg/kg/dose sc x3), the “Euthanized” value was 44 days, the “TGI(%)” value is 83.1% and the “TGD” value stood at 12 days. In addition, the “reduction in tumor growth” value in data set [3] (REGN421 alone, dose not stated) turned out to be 54%.

One may read the AUC as concentration integrated over time. The low end stands for low exposure, the high end for high exposure. One may read the Cmax as the peak of the concentration-time curve. In general, Vss refers to a proportionality between amount in the body and measured concentration, not a real space. A higher Vss goes with extensive tissue distribution.
